IntAct's records for PubMed 28533415

B1: Vacuolar protein 8 (Saccharomyces cerevisiae), P39968 (parent)
chain: MGSCCSCLKDSSDEASVSPIADNEREAVTLLLGYLEDKDQLDFYSGGPLKALTTLVYSDNLNLQRSAALAFAEITEKYVRQVSREVLEPILILLQSQDPQIQVAACAALGNLAVNNENKLLIVEMGGLEPLINQMMGDNVEVQCNAVGCITNLATRDDNKHKIATSGALIPLTKLAKSKHIRVQRNATGALLNMTHSEENRKELVNAGAVPVLVSLLSSTDPDVQYYCTTALSNIAVDEANRKKLAQTEPRLVSKLVSLMDSPSSRVKCQATLALRNLASDTSYQLEIVRAGGLPHLVKLIQSDSIPLVLASVACIRNISIHPLNEGLIVDAGFLKPLVRLLDYKDSEEIQCHAVSTLRNLAASSEKNRKEFFESGAVEKCKELALDSPVSVQSEISACFAILALADVSKLDLLEANILDALIPMTFSQNQEVSGNAAAALANLCSRVNNYTKIIEAWDRPNEGIRGFLIRFLKSDYATFEHIALWTILQLLESHNDKVEDLVKNDDDIINGVRKMADVTFERLQRSGIDVKNPGSNNNPSSNDNNSNNNDTGSEHQPVEDASLELYNITQQILQFLH
partner: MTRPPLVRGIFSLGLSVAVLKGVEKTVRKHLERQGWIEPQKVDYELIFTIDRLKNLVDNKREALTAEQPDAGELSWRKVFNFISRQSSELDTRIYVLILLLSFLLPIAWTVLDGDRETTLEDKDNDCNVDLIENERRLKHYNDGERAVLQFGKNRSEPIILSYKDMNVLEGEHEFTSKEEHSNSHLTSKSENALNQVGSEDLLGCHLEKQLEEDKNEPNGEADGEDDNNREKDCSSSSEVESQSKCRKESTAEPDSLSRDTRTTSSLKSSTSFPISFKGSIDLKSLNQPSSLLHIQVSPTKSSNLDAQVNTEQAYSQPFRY

Variants of: B1
Conditions: with nvj1_yeast NVJ1, P38881

Variant	effect of a mutation on the interaction
MGSCCSCLKDSSDEASVSPIADNEREAVTLLLGYLEDKDQLDFYSGGPLKALTTLVYSDNLNLQRSAALAFAEITEKYVRQVSREVLEPILILLQSQDPQIQVAACAALGNLAVNNENKLLIVEMGGLEPLINQMMGDNVEVQCNAVGCITNLATRDDNKHKIATSGALIPLTKLAKSKHIRVQRNATGALLNMTHSEENRKELVNAGAVPVLVSLLSSTDPDVQYYCTTALSNIAVDEANRKKLAQTEPRLVSKLVSLMDSPSSRVKCQATLALENLASDTSYQLEIVRAGGLPHLVKLIQSDSIPLVLASVACIENISIHPLNEGLIVDAGFLKPLVRLLDYKDSEEIQCHAVSTLENLAASSEKNRKEFFESGAVEKCKELALDSPVSVQSEISACFAILALADVSKLDLLEANILDALIPMTFSQNQEVSGNAAAALANLCSRVNNYTKIIEAWDRPNEGIRGFLIRFLKSDYATFEHIALWTILQLLESHNDKVEDLVKNDDDIINGVRKMADVTFERLQRSGIDVKNPGSNNNPSSNDNNSNNNDTGSEHQPVEDASLELYNITQQILQFLH [R276E;R317E;R359E]	disrupting interaction strength

Variants of: B1
Conditions: with nvj1_yeast NVJ1, P38881
Remark: another data set of the same source

Variant	effect of a mutation on the interaction
MGSCCSCLKDSSDEASVSPIADNEREAVTLLLGYLEDKDQLDFYSGGPLKRLTTLVYSDNLNLQRSAALAFAEITEKYVRQVSREVLEPILILLQSQDPQIQVAACAALGNLAVNNENKLLIVEMGGLEPLINQMMGDNVEVQCNAVGCITNLATRDDNKHKIATSGALIPLTKLAKSKHIRVQRNATGALLNMTHSEENRKELVNAGAVPVLVSLLSSTDPDVQYYCTTALSNIAVDEANRKKLAQTEPRLVSKLVSLMDSPSSRVKCQATLALRNLASDTSYQLEIVRAGGLPHLVKLIQSDSIPLVLASVACIRNISIHPLNEGLIVDAGFLKPLVRLLDYKDSEEIQCHAVSTLRNLAASSEKNRKEFFESGAVEKCKELALDSPVSVQSEISACFAILALADVSKLDLLEANILDALIPMTFSQNQEVSGNAAAALANLCSRVNNYTKIIEAWDRPNEGIRGFLIRFLKSDYATFEHIALWTILQLLESHNDKVEDLVKNDDDIINGVRKMADVTFERLQRSGIDVKNPGSNNNPSSNDNNSNNNDTGSEHQPVEDASLELYNITQQILQFLH [A51R]	disrupting interaction strength
MGSCCSCLKDSSDEASVSPIADNEREAVTLLLGYLEDKDQLDFYSGGPLKALTTRVYSDNLNLQRSAALAFAEITEKYVRQVSREVLEPILILLQSQDPQIQVAACAALGNLAVNNENKLLIVEMGGLEPLINQMMGDNVEVQCNAVGCITNLATRDDNKHKIATSGALIPLTKLAKSKHIRVQRNATGALLNMTHSEENRKELVNAGAVPVLVSLLSSTDPDVQYYCTTALSNIAVDEANRKKLAQTEPRLVSKLVSLMDSPSSRVKCQATLALRNLASDTSYQLEIVRAGGLPHLVKLIQSDSIPLVLASVACIRNISIHPLNEGLIVDAGFLKPLVRLLDYKDSEEIQCHAVSTLRNLAASSEKNRKEFFESGAVEKCKELALDSPVSVQSEISACFAILALADVSKLDLLEANILDALIPMTFSQNQEVSGNAAAALANLCSRVNNYTKIIEAWDRPNEGIRGFLIRFLKSDYATFEHIALWTILQLLESHNDKVEDLVKNDDDIINGVRKMADVTFERLQRSGIDVKNPGSNNNPSSNDNNSNNNDTGSEHQPVEDASLELYNITQQILQFLH [L55R]	disrupting interaction strength
